Assays:
[1] = system: prostate cancer; details: patients with prostate cancer; cited from earlier work
[2] = system: melanoma; details: subcutaneous long-term therapy after surgical resection; cited from earlier work
[3] = system: sarcoma; details: monotherapy; cited from earlier work
[4] = system: Panc02 SC tumors; test: Antitumoral efficacy in Panc02 SC tumor model (C57BJL6 mice); type: in vivo, mouse; details: Panc02, 100 μg/Kg SC daily, 20 days of treatment
Procedure: It is depicted the antitumoral efficacy of G-CSF in murine pancreatic SC tumors. C57BJL6 mice bearing Panc02 SC tumors were daily treated with subcutaneous G-CSF injection at a dose of 100 μg/kg. […]
(§1) Human pancreatic adenocarcinoma cell lines, Panc-1 and MiaPaca cells and the mouse pancreatic adenocarcinoma cells Panc02, were used for pancreatic cancer efficacy studies. Murine colorectal carcinoma cell line, Colon-26 cells, was used for colon cancer efficacy studies. […]
(§2) Mouse Models and Tumor Growth Studies Animal procedures met the guidelines of European Community Directive 86/609/EEC and were approved by the Local Ethical Committee. […] All animals were weighed and tumors were measured using manual caliper three times per week. SC tumor volumes were calculated according to the formula described by Attia and Weiss (Attia M A, et. al. “Immunology of spontaneous mammary carcinomas in mice. V. Acquired tumor resistance and enhancement in strain A mice infected with mammary tumor virus” Cancer Res. 1966, vol. 26, pp, 1787-1800), V (mm^3)=0.4×(larger diameter×smaller diameter^2). […]

[5] = system: Panc-1 SC tumors; test: Antitumoral efficacy in Panc-1 SC tumor model (athymic nu/nu mice); type: in vivo, mouse; details: Panc-1, 10 μg/Kg SC daily, 48 days of treatment
Procedure: (§3) It is depicted the antitumoral efficacy of G-CSF in human pancreatic SC tumors. Athymic nu/nu mice bearing Panc-1 SC tumors were daily treated with subcutaneous G-CSF injection at a dose of 10 μg/Kg, while GE was injected intraperitoneal at a dose of 80 mg/Kg two times per week during the whole experiment. Total tumor volume (mm^3±SE) in saline (solid lines), G-CSF 10 μg/Kg (dashed lines) and GE 80 mg/kg (dotted) groups, for 48 days of treatment are represented.
as §1, §2

[6] = system: peripheral blood granulocytes; test: Peripheral blood granulocyte levels in athymic nu/nu mice bearing MiaPaca SC tumors; type: in vivo, mouse; details: MiaPaca tumor-bearing nu/nu mice, first SC injection at 10, 25, 50 and 100 μg/kg, blood at 1.5 hr
Procedure: Depiction of peripheral blood granulocytes levels in Athymic nu/nu mice bearing MiaPaca SC tumors after the subcutaneous injection of G-CSF 10, 25, 50 and 100 μg/kg. Blood samples were taken at 1.5 hr and peripheral blood granulocytes levels are represented as a total number of granulocytes (GRA 10^9/L).
As peripheral blood is the only tissue routinely available from mice, the peripheral blood hemogram was also assessed in order to provide information about the behavior of blood cell populations after the subcutaneous injection of different G-CSF doses (Filgrastim—Amgen). The peripheral blood collected from the right femoral artery with a heparinized syringe in vacutainer blood collection tubes containing EDTA (Sarstedt Microvette® CB 300) were immediately subjected to differential blood cell counts (red blood cells (RBCs), white blood cells (WBCs), and blood platelets (PLTs)) and measurement of blood hemoglobin concentration using a blood cell differential automatic analyzer (ABACUS JUNIOR VET). The data for each experimental group were obtained from three to five mice. Inventors especially focused their attention on the distribution of granulocytes in the peripheral blood which was determined at 1, 5 or 2, 6, 10 and 24 hrs after an initial dose of G-CSF subcutaneously. Peripheral blood granulocytes levels were analyzed in healthy (FIG. 7), and tumor-bearing mice (FIG. 8). […]

[7] = system: peripheral blood granulocytes; test: Peripheral blood granulocyte levels after single subcutaneous G-CSF injection in healthy C57BJL6 mice; type: in vivo, mouse
Procedure: (§4) Depiction of the peripheral blood granulocytes levels in healthy C57BJL6 and Athymic nu/nu mice after the subcutaneous injection of a single dose of G-CSF (10 μg/kg) in C57BJL6, and 10, 25, 50 and 100 μg/kg of G-CSF in Athymic nu/nu mice. Blood samples were taken at different time points and peripheral blood granulocytes levels are represented as a total number of granulocytes (GRA×10^9/L).
(§5) As peripheral blood is the only tissue routinely available from mice, the peripheral blood hemogram was also assessed in order to provide information about the behavior of blood cell populations after the subcutaneous injection of different G-CSF doses (Filgrastim—Amgen). […] Inventors especially focused their attention on the distribution of granulocytes in the peripheral blood which was determined at 1, 5 or 2, 6, 10 and 24 hrs after an initial dose of G-CSF subcutaneously. Peripheral blood granulocytes levels were analyzed in healthy (FIG. 7), and tumor-bearing mice (FIG. 8). […]

[8] = system: Colon-26 SC tumors; test: Effect of Sephadex on G-CSF antitumoral efficacy in Colon-26 model; type: in vivo, mouse; details: Colon-26 and Sephadex, 50 μg/Kg SC daily, 19 days
Procedure: Depiction of the antitumoral efficacy of G-CSF in colorectal SC tumors. BalbC mice bearing Colon-26 SC tumors, with and without Sephadex papula, were treated daily with subcutaneous G-CSF injection at a dose of 50 ug/kg. Total tumor volume (mm^3±SE) of saline (circle), G-CSF 50 μg/kg (square, abbreviated IT50), Sephadex-Saline (triangle), and Sephadex+G-CSF 50 μg/kg (cross, abbreviated IT-Sephadex.), for 19 days of treatment are represented.
Antitumoral experiments were carried out on immunocompetent Balb/C tumor-bearing mice treated with Sephadex. Sephadex treatments were initiated when SC Colon-26 tumors reached a tumor volume ranging from 90 to 110 mm^3 and 0.5 mL of Sephadex 16% (Sephadex G-150, Pharmacia Fine Chemicals, Sweden) was subcutaneously injected in the left side flank of mice. Control animals included were Saline and Sephadex groups. In this experiment, G-CSF group was treated at a dose of 50 μg/Kg (Filgrastim—Amgen). There were 4 animals per group and their survival was monitored daily (FIG. 6). In this model, Sephadex distracts functional granulocytes from the blood into the Sephadex papula thus abolishing G-CSF antitumoral activity. […]

[9] = system: Colon-26 SC tumors; test: Antitumoral efficacy in Colon-26 SC tumor model (Balb/C mice); type: in vivo, mouse; details: Colon-26, 10 μg/Kg SC daily, 18 days of treatment
Procedure: It is depicted the antitumoral efficacy of G-CSF in mouse colorectal SC tumors. BalbC mice bearing colorectal SC tumors were daily treated with subcutaneous G-CSF injection at a dose of 10 μg/kg. Total tumor volume (mm^3±SE) in saline (solid lines) and G-CSF10 μg/kg (dashed lines) groups, for 18 days of treatment are represented.
Depiction of the antitumoral efficacy of G-CSF in colorectal SC tumors. BalbC mice bearing Colon-26 SC tumors, with and without Sephadex papula, were treated daily with subcutaneous G-CSF injection at a dose of 50 ug/kg. […]
as §2
Antitumoral experiments were carried out on immunocompetent Balb/C tumor-bearing mice treated with Sephadex. […] There were 4 animals per group and their survival was monitored daily (FIG. 6). […]

[10] = system: neutrophils in peripheral blood; test: Peripheral blood neutrophil levels in Colon-26 mice with Sephadex; type: in vivo, mouse; details: Sephadex-treated Colon-26 mice
Procedure: Antitumoral experiments were carried out on immunocompetent Balb/C tumor-bearing mice treated with Sephadex. Sephadex treatments were initiated when SC Colon-26 tumors reached a tumor volume ranging from 90 to 110 mm^3 and 0.5 mL of Sephadex 16% (Sephadex G-150, Pharmacia Fine Chemicals, Sweden) was subcutaneously injected in the left side flank of mice. Control animals included were Saline and Sephadex groups. In this experiment, G-CSF group was treated at a dose of 50 μg/Kg (Filgrastim—Amgen). There were 4 animals per group and their survival was monitored daily (FIG. 6). In this model, Sephadex distracts functional granulocytes from the blood into the Sephadex papula thus abolishing G-CSF antitumoral activity.
as §5

[11] = system: tumor-infiltrating granulocytes; test: Tumor granulocytes (CD45+CD11b+Ly6G+) by flow cytometry in Colon-26 tumors; type: in vivo, mouse; details: 10 μg/Kg SC, day 5, flow cytometry
Procedure: Depiction of the tumor granulocyte levels, defined as a CD45+CD11b+Ly6G+ triple positive population, analyzed by flow cytometry from Colon-26 tumors treated with 10 μg/kg of G-CSF during 5 days. Granulocytes cells from tumor are represented as a % of positive cells±SE.
To evaluate the antitumoral capacity of G-CSF in murine colorectal carcinoma, immunocompetent Balb/C mice bearing Colon-26 tumors were treated when SC tumors reached a tumor volume ranging from 90 to 110 mm^3. For G-CSF therapy, Balb/C mice were randomly divided in Saline and G-CSF groups. G-CSF treatment (Filgrastim—Amgen) was applied subcutaneously every day during the whole experiment (FIG. 4). At day 5 of the experiments, 4 animals of each treatment were sacrificed and tumors were collected. Granulocytes (GRA) cells were detected by FACS, analyzing the markers of these cells: CD45+CD11b+Ly6G (FIG. 5). Details about each treatment are described in the present table: […]

[12] = system: MiaPaca SC tumors; test: Antitumoral efficacy in MiaPaca SC tumor model (athymic nu/nu mice); type: in vivo, mouse; details: 10 μg/Kg SC daily, 37 days after treatment
Procedure: as §3, with “MiaPaca” for “Panc-1”, “μg/kg,” for “μg/Kg,”, “μg/kg” for “μg/Kg”, “37” for “48”
as §1, §2

[13] = system: peripheral blood granulocytes; test: Peripheral blood granulocyte levels after single subcutaneous G-CSF injection in healthy athymic nu/nu mice; type: in vivo, mouse
Procedure: as §4
As peripheral blood is the only tissue routinely available from mice, the peripheral blood hemogram was also assessed in order to provide information about the behavior of blood cell populations after the subcutaneous injection of different G-CSF doses (Filgrastim—Amgen). The peripheral blood collected from the right femoral artery with a heparinized syringe in vacutainer blood collection tubes containing EDTA (Sarstedt Microvette® CB 300) were immediately subjected to differential blood cell counts (red blood cells (RBCs), white blood cells (WBCs), and blood platelets (PLTs)) and measurement of blood hemoglobin concentration using a blood cell differential automatic analyzer (ABACUS JUNIOR VET). The data for each experimental group were obtained from three to five mice. Inventors especially focused their attention on the distribution of granulocytes in the peripheral blood which was determined at 1, 5 or 2, 6, 10 and 24 hrs after an initial dose of G-CSF subcutaneously. Peripheral blood granulocytes levels were analyzed in healthy (FIG. 7), and tumor-bearing mice (FIG. 8). C57BJL6 healthy mice were injected with G-CSF 10 μg/kg and healthy athymic nu/nu mice were injected with different doses of G-CSF: 0, 10, 25, 50 and 100 μg/kg (FIG. 7). Athymic nu/nu mice bearing subcutaneous MiaPaca tumor were injected with G-CSF 10, 25, 50 and 100 μg/kg and blood was extracted at 1.5 hr (FIG. 8).

Molecule: GM-CSF: Granulocyte Macrophage Colony Stimulating Factor, recombinant protein; only literature results cited
- therapeutic benefit in prostate cancer patients [1]: therapeutic benefit
- therapeutic effect in melanoma patients [2]: therapeutic effect
- therapeutic benefit in sarcoma [3]: did not reveal a therapeutic benefit

B1: G-CSF: Granulocyte Colony Stimulating Factor, recombinant protein; Filgrastim (Amgen) used in the experiments (protein, UniProt P09919 31-207, looked up)
Granulocyte …: TPLGPASSLPQSFLLKCLEQVRKIQGDGAALQEKLVSECATYKLCHPEELVLLGHSLGIPWAPLSSCPSQALQLAGCLSQLHSGLFLYQGLLQALEGISPELGPTLDTLQLDVADFATTIWQQMEELGMAPALQPTQGAMPAFASAFQRRAGGVLVASHLQSFLEVSYRVLRHLAQP
modifications: N-terminal methionine (filgrastim)
notes: Granulocyte Colony Stimulating Factor, recombinant protein; Filgrastim (Amgen) used in the experiments
- tumor inhibition compared to saline [4]: around 50%
- tumor inhibition compared to saline [5]: up to 90%
- peripheral blood granulocyte levels [6]: increase in a dose response manner
- increase of granulocyte levels compared to untreated animals ([7]; single SC dose 10 μg/Kg): 2.5 fold
- time of maximum peripheral blood granulocyte levels post-G-CSF injection ([7]; single SC injection): 6 h
- tumor inhibition [8]: 50%
- tumor inhibition [9]: up to 60%
- neutrophils levels in peripheral blood after G-CSF injection [10]: smoothly recovered
- tumor-infiltrating granulocytes (CD45+CD11b+Ly6G+ triple positive population) [11]: significant increase
- tumor inhibition compared to saline [12]: up to 55%
- increase of granulocyte levels compared to untreated animals ([13]; single SC dose 10 μg/Kg): 2.5 fold
- increase of granulocyte levels compared to untreated animals ([13]; single SC dose 25 μg/Kg): 3.5 fold
- increase of granulocyte levels compared to untreated animals ([13]; single SC dose 50 μg/Kg): 3.7 fold
- increase of granulocyte levels compared to untreated animals ([13]; single SC dose 100 μg/Kg): 3.5 fold
- time of maximum peripheral blood granulocyte levels post-G-CSF injection ([13]; single SC injection): 6 h

Reference: US11020455B2, “Colony stimulating factor for use in pancreatic or colon cancer treatment” (ENDOR TECHNOLOGIES, S.L., priority 2015, dated 2021)
